Data published in article PMC11765575 (International Journal of Molecular Sciences, 2025).

Target: T1, osteocalcin C-terminal 7-residue peptide BGP-C7 (human)
T1 construct: C-terminal 7 residues of human osteocalcin (bone Gla protein, BGP), printed as NH2-RRFYGPV-COOH; Free N- and C-termini as printed (NH2-RRFYGPV-COOH); also called antigen peptide; osteocalcin C-terminal peptide
T1 chain: RRFYGPV
Assay: crystal structure; KTM219 Fab with three molar excess BGP-C7, complex purified by gel filtration; crystallised at 20 °C, sitting drop, 0.07 M citric acid, 0.03 M Bis-tris propane (pH 3.4), 16% w/v PEG 3350, microseeding; refined to 2.30 Å
Details: both partners purified

B1: Fab fragment of anti-osteocalcin C-terminal peptide antibody KTM219 (Fab, V domains shown)
VH: QVKLQQSGAEFVKAGASVKLSCKTSGYTFNNYWIHWVKQSPGQGLEWIGEIDPSDGYSNYNQKFKGKATLTVDKSSSTAYMHLNSLTSEDSAVYYCTSSTSVGGSWGQGTTVTVSS
VL: DIELTQSPLSLPVSLGDQASISCTSSQSLLHSNGDTYLHWYLQKPGQSPKLLIYTLSNRFSGVPDRFSGSGSGTDFTLKISRVEAADLGIYFCSQTTHVPYTFGGGTKLEIK
notes: heavy chain (VH-CH1) of KTM219 Fab; light chain (VL-CL) of KTM219 Fab; also called KTM219 Fab
binding result: binds
